{"source": "patent US20240124553A1", "experiment_in_all_cases": "flow cytometry, transfected 293T cells", "key": {"[1]": {"molecular_target": "CHIKV E2-E1 envelope glycoproteins (strain S27), E2 mutant P75A (chikungunya virus strain S27) (UniProt Q8JUX5)"}, "[2]": {"molecular_target": "CHIKV E2-E1 envelope glycoproteins (strain S27), E2 mutant G79A (chikungunya virus strain S27) (UniProt Q8JUX5)"}, "[3]": {"molecular_target": "CHIKV E2-E1 envelope glycoproteins (strain S27), E2 mutant P133A (chikungunya virus strain S27) (UniProt Q8JUX5)"}, "[4]": {"molecular_target": "CHIKV E2-E1 envelope glycoproteins (strain S27), E2 mutant G98A (chikungunya virus strain S27) (UniProt Q8JUX5)"}, "[5]": {"molecular_target": "CHIKV E2-E1 envelope glycoproteins (strain S27), E2 mutant K107A (chikungunya virus strain S27) (UniProt Q8JUX5)"}, "[6]": {"molecular_target": "CHIKV E2-E1 envelope glycoproteins (strain S27), E2 mutant V85A (chikungunya virus strain S27) (UniProt Q8JUX5)"}, "[7]": {"molecular_target": "CHIKV E2-E1 envelope glycoproteins (strain S27), E2 mutant R36A (chikungunya virus strain S27) (UniProt Q8JUX5)"}, "[8]": {"molecular_target": "CHIKV E2-E1 envelope glycoproteins (strain S27), E2 mutant E109A (chikungunya virus strain S27) (UniProt Q8JUX5)"}, "[9]": {"molecular_target": "CHIKV E2-E1 envelope glycoproteins (strain S27), E2 mutant K47A (chikungunya virus strain S27) (UniProt Q8JUX5)"}, "[10]": {"molecular_target": "CHIKV E2-E1 envelope glycoproteins (strain S27), E2 mutant M97A (chikungunya virus strain S27) (UniProt Q8JUX5)"}, "[11]": {"molecular_target": "CHIKV E2-E1 envelope glycoproteins (strain S27), E2 mutant C91A (chikungunya virus strain S27) (UniProt Q8JUX5)"}, "[12]": {"molecular_target": "CHIKV E2-E1 envelope glycoproteins (strain S27), E2 mutant F100A (chikungunya virus strain S27) (UniProt Q8JUX5)"}, "[13]": {"molecular_target": "CHIKV E2-E1 envelope glycoproteins (strain S27), E2 mutant L67A (chikungunya virus strain S27) (UniProt Q8JUX5)"}, "[14]": {"molecular_target": "CHIKV E2-E1 envelope glycoproteins (strain S27), E2 mutant T42A (chikungunya virus strain S27) (UniProt Q8JUX5)"}, "[15]": {"molecular_target": "CHIKV E2-E1 envelope glycoproteins (strain S27), E2 mutant T58A (chikungunya virus strain S27) (UniProt Q8JUX5)"}, "[16]": {"molecular_target": "CHIKV E2-E1 envelope glycoproteins (strain S27), E2 mutant D132A (chikungunya virus strain S27) (UniProt Q8JUX5)"}, "[17]": {"molecular_target": "CHIKV E2-E1 envelope glycoproteins (strain S27), E2 mutant R38A (chikungunya virus strain S27) (UniProt Q8JUX5)"}, "[18]": {"molecular_target": "CHIKV E2-E1 envelope glycoproteins (strain S27), E2 mutant T92A (chikungunya virus strain S27) (UniProt Q8JUX5)"}, "[19]": {"molecular_target": "CHIKV E2-E1 envelope glycoproteins (strain S27), E2 mutant T112A (chikungunya virus strain S27) (UniProt Q8JUX5)"}, "[20]": {"molecular_target": "CHIKV E2-E1 envelope glycoproteins (strain S27), E2 mutant L46A (chikungunya virus strain S27) (UniProt Q8JUX5)"}, "[21]": {"molecular_target": "CHIKV E2-E1 envelope glycoproteins (strain S27), E2 mutant F84A (chikungunya virus strain S27) (UniProt Q8JUX5)"}, "[22]": {"molecular_target": "CHIKV E2-E1 envelope glycoproteins (strain S27), E2 mutant S61A (chikungunya virus strain S27) (UniProt Q8JUX5)"}, "[23]": {"molecular_target": "CHIKV E2-E1 envelope glycoproteins (strain S27), E2 mutant G95A (chikungunya virus strain S27) (UniProt Q8JUX5)"}, "[24]": {"molecular_target": "CHIKV E2-E1 envelope glycoproteins (strain S27), E2 mutant I93A (chikungunya virus strain S27) (UniProt Q8JUX5)"}, "[25]": {"molecular_target": "CHIKV E2-E1 envelope glycoproteins (strain S27), E2 mutant H62A (chikungunya virus strain S27) (UniProt Q8JUX5)"}, "[26]": {"molecular_target": "CHIKV E2-E1 envelope glycoproteins (strain S27), E2 mutant E40A (chikungunya virus strain S27) (UniProt Q8JUX5)"}, "[27]": {"molecular_target": "CHIKV E2-E1 envelope glycoproteins (strain S27), E2 mutant H127A (chikungunya virus strain S27) (UniProt Q8JUX5)"}, "[28]": {"molecular_target": "CHIKV E2-E1 envelope glycoproteins (strain S27), E2 mutant H99A (chikungunya virus strain S27) (UniProt Q8JUX5)"}, "[29]": {"molecular_target": "CHIKV E2-E1 envelope glycoproteins (strain S27), E2 mutant G82A (chikungunya virus strain S27) (UniProt Q8JUX5)"}, "[30]": {"molecular_target": "CHIKV E2-E1 envelope glycoproteins (strain S27), E2 mutant H123A (chikungunya virus strain S27) (UniProt Q8JUX5)"}, "[31]": {"molecular_target": "CHIKV E2-E1 envelope glycoproteins (strain S27), E2 mutant A41S (chikungunya virus strain S27) (UniProt Q8JUX5)"}, "[32]": {"molecular_target": "CHIKV E2-E1 envelope glycoproteins (strain S27), E2 mutant R80A (chikungunya virus strain S27) (UniProt Q8JUX5)"}, "[33]": {"molecular_target": "CHIKV E2-E1 envelope glycoproteins (strain S27), E2 mutant K120A (chikungunya virus strain S27) (UniProt Q8JUX5)"}}, "data": [{"substance": "CHIKV mAb IM-CKV063 (antibody)", "values": [{"measurement": "Binding Reactivity (% WT)", "setting": "[1]", "result": 96.4, "unit": "% WT"}, {"measurement": "Binding Reactivity (% WT)", "setting": "[2]", "result": 86.9, "unit": "% WT"}, {"measurement": "Binding Reactivity (% WT)", "setting": "[3]", "result": 73.9, "unit": "% WT"}, {"measurement": "Binding Reactivity (% WT)", "setting": "[4]", "result": 99.9, "unit": "% WT"}, {"measurement": "Binding Reactivity (% WT)", "setting": "[5]", "result": 86.8, "unit": "% WT"}, {"measurement": "Binding Reactivity (% WT)", "setting": "[6]", "result": 74.5, "unit": "% WT"}, {"measurement": "Binding Reactivity (% WT)", "setting": "[7]", "result": 76.5, "unit": "% WT"}, {"measurement": "Binding Reactivity (% WT)", "setting": "[8]", "result": 76.6, "unit": "% WT"}, {"measurement": "Binding Reactivity (% WT)", "setting": "[9]", "result": 72.1, "unit": "% WT"}, {"measurement": "Binding Reactivity (% WT)", "setting": "[10]", "result": 69.9, "unit": "% WT"}, {"measurement": "Binding Reactivity (% WT)", "setting": "[11]", "result": 1.5, "unit": "% WT"}, {"measurement": "Binding Reactivity (% WT)", "setting": "[12]", "result": 33.6, "unit": "% WT"}, {"measurement": "Binding Reactivity (% WT)", "setting": "[13]", "result": 62.1, "unit": "% WT"}, {"measurement": "Binding Reactivity (% WT)", "setting": "[14]", "result": 111, "unit": "% WT"}, {"measurement": "Binding Reactivity (% WT)", "setting": "[15]", "result": 88.7, "unit": "% WT"}, {"measurement": "Binding Reactivity (% WT)", "setting": "[16]", "result": 116, "unit": "% WT"}, {"measurement": "Binding Reactivity (% WT)", "setting": "[17]", "result": 94.7, "unit": "% WT"}, {"measurement": "Binding Reactivity (% WT)", "setting": "[18]", "result": 84.5, "unit": "% WT"}, {"measurement": "Binding Reactivity (% WT)", "setting": "[19]", "result": 43.1, "unit": "% WT"}, {"measurement": "Binding Reactivity (% WT)", "setting": "[20]", "result": 2.7, "unit": "% WT"}, {"measurement": "Binding Reactivity (% WT)", "setting": "[21]", "result": 61.7, "unit": "% WT"}, {"measurement": "Binding Reactivity (% WT)", "setting": "[22]", "result": 100, "unit": "% WT"}, {"measurement": "Binding Reactivity (% WT)", "setting": "[23]", "result": 88.9, "unit": "% WT"}, {"measurement": "Binding Reactivity (% WT)", "setting": "[24]", "result": 8.4, "unit": "% WT"}, {"measurement": "Binding Reactivity (% WT)", "setting": "[25]", "result": 79.6, "unit": "% WT"}, {"measurement": "Binding Reactivity (% WT)", "setting": "[26]", "result": 106, "unit": "% WT"}, {"measurement": "Binding Reactivity (% WT)", "setting": "[27]", "result": 96.1, "unit": "% WT"}, {"measurement": "Binding Reactivity (% WT)", "setting": "[28]", "result": 63.8, "unit": "% WT"}, {"measurement": "Binding Reactivity (% WT)", "setting": "[29]", "result": 91.1, "unit": "% WT"}, {"measurement": "Binding Reactivity (% WT)", "setting": "[30]", "result": 44.2, "unit": "% WT"}, {"measurement": "Binding Reactivity (% WT)", "setting": "[31]", "result": 51.1, "unit": "% WT"}, {"measurement": "Binding Reactivity (% WT)", "setting": "[32]", "result": 86.3, "unit": "% WT"}, {"measurement": "Binding Reactivity (% WT)", "setting": "[33]", "result": 13.1, "unit": "% WT"}]}, {"substance": "CHIKV mAb IM-CKV065 (antibody)", "values": [{"measurement": "Binding Reactivity (% WT)", "setting": "[1]", "result": 84.9, "unit": "% WT"}, {"measurement": "Binding Reactivity (% WT)", "setting": "[2]", "result": 98.5, "unit": "% WT"}, {"measurement": "Binding Reactivity (% WT)", "setting": "[3]", "result": 66.6, "unit": "% WT"}, {"measurement": "Binding Reactivity (% WT)", "setting": "[4]", "result": 112, "unit": "% WT"}, {"measurement": "Binding Reactivity (% WT)", "setting": "[5]", "result": 95.2, "unit": "% WT"}, {"measurement": "Binding Reactivity (% WT)", "setting": "[6]", "result": 88.1, "unit": "% WT"}, {"measurement": "Binding Reactivity (% WT)", "setting": "[7]", "result": 119, "unit": "% WT"}, {"measurement": "Binding Reactivity (% WT)", "setting": "[8]", "result": 82.6, "unit": "% WT"}, {"measurement": "Binding Reactivity (% WT)", "setting": "[9]", "result": 85.5, "unit": "% WT"}, {"measurement": "Binding Reactivity (% WT)", "setting": "[10]", "result": 65.7, "unit": "% WT"}, {"measurement": "Binding Reactivity (% WT)", "setting": "[11]", "result": -2, "unit": "% WT"}, {"measurement": "Binding Reactivity (% WT)", "setting": "[12]", "result": 15.1, "unit": "% WT"}, {"measurement": "Binding Reactivity (% WT)", "setting": "[13]", "result": 54.1, "unit": "% WT"}, {"measurement": "Binding Reactivity (% WT)", "setting": "[14]", "result": 104, "unit": "% WT"}, {"measurement": "Binding Reactivity (% WT)", "setting": "[15]", "result": 93.5, "unit": "% WT"}, {"measurement": "Binding Reactivity (% WT)", "setting": "[16]", "result": 126, "unit": "% WT"}, {"measurement": "Binding Reactivity (% WT)", "setting": "[17]", "result": 133, "unit": "% WT"}, {"measurement": "Binding Reactivity (% WT)", "setting": "[18]", "result": 93.2, "unit": "% WT"}, {"measurement": "Binding Reactivity (% WT)", "setting": "[19]", "result": 16.2, "unit": "% WT"}, {"measurement": "Binding Reactivity (% WT)", "setting": "[20]", "result": -2.7, "unit": "% WT"}, {"measurement": "Binding Reactivity (% WT)", "setting": "[21]", "result": 51.6, "unit": "% WT"}, {"measurement": "Binding Reactivity (% WT)", "setting": "[22]", "result": 112, "unit": "% WT"}, {"measurement": "Binding Reactivity (% WT)", "setting": "[23]", "result": 92.6, "unit": "% WT"}, {"measurement": "Binding Reactivity (% WT)", "setting": "[24]", "result": -0.9, "unit": "% WT"}, {"measurement": "Binding Reactivity (% WT)", "setting": "[25]", "result": 88.5, "unit": "% WT"}, {"measurement": "Binding Reactivity (% WT)", "setting": "[26]", "result": 124, "unit": "% WT"}, {"measurement": "Binding Reactivity (% WT)", "setting": "[27]", "result": 81.9, "unit": "% WT"}, {"measurement": "Binding Reactivity (% WT)", "setting": "[28]", "result": 27.5, "unit": "% WT"}, {"measurement": "Binding Reactivity (% WT)", "setting": "[29]", "result": 104, "unit": "% WT"}, {"measurement": "Binding Reactivity (% WT)", "setting": "[30]", "result": 30.8, "unit": "% WT"}, {"measurement": "Binding Reactivity (% WT)", "setting": "[31]", "result": 33.8, "unit": "% WT"}, {"measurement": "Binding Reactivity (% WT)", "setting": "[32]", "result": 125, "unit": "% WT"}, {"measurement": "Binding Reactivity (% WT)", "setting": "[33]", "result": 0.4, "unit": "% WT"}]}]}
